US20090062190A1, “Transcriptional Regulation of Cytokines by LITAF and STAT (6)(B)” (priority 2005, published 2009)

B1: STAT6(A): known gene STAT6 (GenBank), referred to as STAT6(A) in this study (protein, UniProt P42226 2-847, looked up)
Signal transducer and …: SLWGLVSKMPPEKVQRLYVDFPQHLRHLLGDWLESQPWEFLVGSDAFCCNLASALLSDTVQHLQASVGEQGEGSTILQHISTLESIYQRDPLKLVATFRQILQGEKKAVMEQFRHLPMPFHWKQEELKFKTGLRRLQHRVGEIHLLREALQKGAEAGQVSLHSLIETPANGTGPSEALAMLLQETTGELEAAKALVLKRIQIWKRQQQLAGNGAPFEESLAPLQERCESLVDIYSQLQQEVGAAGGELEPKTRASLTGRLDEVLRTLVTSCFLVEKQPPQVLKTQTKFQAGVRFLLGLRFLGAPAKPPLVRADMVTEKQARELSVPQGPGAGAESTGEIINNTVPLENSIPGNCCSALFKNLLLKKIKRCERKGTESVTEEKCAVLFSASFTLGPGKLPIQLQALSLPLVVIVHGNQDNNAKATILWDNAFSEMDRVPFVVAERVPWEKMCETLNLKFMAEVGTNRGLLPEHFLFLAQKIFNDNSLSMEAFQHRSVSWSQFNKEILLGRGFTFWQWFDGVLDLTKRCLRSYWSDRLIIGFISKQYVTSLLLNEPDGTFLLRFSDSEIGGITIAHVIRGQDGSPQIENIQPFSAKDLSIRSLGDRIRDLAQLKNLYPKKPKDEAFRSHYKPEQMGKDGRGYVPATIKMTVERDQPLPTPELQMPTMVPSYDLGMAPDSSMSMQLGPDMVPQVYPPHSHSIPPYQGLSPEESVNVLSAFQEPHLQMPPSLGQMSLPFDQPHPQGLLPCQPQEHAVSSPDPLLCSDVTMVEDSCLSQPVTAFPQGTWIGEDIFPPLLPPTEQDLTKLLLEGQGESGGGSLGAQPLLQPSHYGQSGISMSHMDLRANPSW
B2: LITAF: LPS-induced TNF-α factor, SEQ ID NO: 1; full length DNA transfected for overexpression (protein, listed as Homo sapiens)
chain: MSVPGPYQAATGPSSAPSAPPSYEETVAVNSYYPTPPAPMPGPTTGLVTGPDGKGMNPPSYYTQPAPIPNNNPITVQTVYVQHPITFLDRPIQMCCPSCNKMIVSQLSYNAGALTWLSCGSLCLLGVHSGLLLHPLLRGCPAGRGPLLSQLQSSPGHLQAFVGLSQTQREPGAAGSPFHLSSSFTPGGGSALVVSPLQGAHLHVFFWGEYVAKLTNLQTPEIAAWSRA
B3: STAT6(B): novel protein, Signal transducer and activator of transcription, SEQ ID NO: 2; full length DNA transfected (protein, listed as Homo sapiens)
chain: MARRNPSPPLQRLRDWGHHHCPCHPGPGWLSTDGEHPAILCQRPVHSLTGGPNPGSCSAQKSLSQEAQGGGFPEPLQAWAGTGCSDSFLSPTSSLLPAALLSLPVCHPDVTPYFIAVLLLLPHDPCPPFPPPFLPNPRALHGCLFLLTTAEQMGKDGRGYVPATIKMTVERGVWWYGQWVGQGLVVLICRKEGWHQPLVSHMYLLPSSRDQPLPTPELQMPTMVPSYDLGMAPDSSMSMQLGPDMVPQVYPPHSHSIPPYQGLSPEESVNVLSAFQEPHLQMPPSLGQMSLSFDQPHPQGLLPCQPQEHAVSSPDPLLCSDVTTVEDSCLSQPVTAFPQGTWIGEDIFPPLLPPTEQDLTKLLLEGQGESGGGSLGAQPLLQPSHYGQSGISMSHMDLRANPSW

Columns and labels:
THP-1 cells [1] = assay: Western blot of cytokine protein levels in transfected THP-1 cells (FIG. 6d); assay type: cell-based, human; conditions: overexpression in THP-1 cells
Description: (§1) Since both LITAF and STAT6(B) were found in the nucleus (FIG. 5), it was further investigated whether they act separately or in concert in mediating activation of TNF-α. While studying the complex, a cytokine array was employed to look at effects on other cytokines (FIG. 6a-6c.). The assay was preformed as follows. Using an empty vector as a control (FIG. 6b1), DNA of LITAF (full length, FIG. 6b2), STAT6(B) (full length; FIG. 6b3) or both full length of LITAF+STAT6(B) (FIG. 6b4), respectively, was transfected or co-transfected into THP-1 cells. Conditioned medium from each treated cell type was then prepared and incubated with membranes containing an array of 44 human protein cytokine antibodies (FIG. 6a). Autoradiographs were scanned, and the density of each cytokine at the corresponding position was determined. […] The relative intensities of each cytokine were normalized to control spots on the same membrane. Major increases or decreases among cytokines are represented graphically in FIG. 6c. […] In order to confirm these findings at the protein level we selected the four most strongly affected cytokines, IL-1α, IL-10, MCP-2 and RANTES and, under the same experimental conditions, measured their protein levels by Western blots.

VEGF promoter = VEGF promoter activity / VEGF expression in transfected U2OS cells; assay type: cell-based, human; conditions: transient transfection into U2OS cells with pcVEGF or pEVEGF
Procedure: To determine that this activation occurred at the transcriptional level, VEGF promoter activity assays were performed. A full length VEGF sequence, with or without its enhancer element (−2040˜+1), named pcVEGF or pEVEGF, was cloned into pcDNA3 plasmid. The cloned DNA with LITAF and/or STAT6(B) DNAs were transiently co-transfected into U2OS cells as described in FIG. 11a.

THP-1 cells [2] = assay: Human cytokine antibody array of conditioned medium from transfected THP-1 cells; assay type: cell-based; conditions: single transfection
Description: as §1

MCP-1 promoter = assay: Luciferase assay of MCP-1 promoter activity after transient transfection (FIG. 16); assay type: cell-based
Description: To show this hypothesis, monocyte chemoattractant protein-1 (MCP-1), an important component of the inflammatory process, is selected to determine whether its LPS-triggered transcriptional regulation parallels observations for TNF. Recent studies have shown that the MCP-1 promoter activity can be regulated by NF-KB, STAT1, CEB/P homologous protein (CHOP), heme oxygenase-1 (HO-1) or activated protein C (APC) (Kim, et al, Clin Exp Immunol, 140:450-460, 2005; Jaruga, et al., Am J Physiol Gastrointest Liver Physiol, 287:G471-479, 2004, Abraham, et al., J Neuroimmunol, 160:219-221, 2005; Kanakiriya, et al., Am J Physiol Renal Physiol, 284:F:546-554, 2003). However, the precise LPS signaling pathways leading to MCP-1 induction have not been fully identified. In Examples 1-3, above, the regulation of LPS-induced inflammatory cytokine expression was shown. […] Thus, CTCCC represents a specific sequence in cytokine promoters to which LITAF binds for activity. […] Thus, short peptides with amino acids designed and synthesized based on the potential binding domain of LITAF and STAT6(B) jointly enhance MCP-1 promoter activity.

TNF-α promoter = TNF-α promoter luciferase assay in transfected U2OS cells; assay type: cell-based, human; conditions: transfection alone
Procedure: In order to characterize the functional importance of LITAF in the LITAF/STAT6(B) complex, the effect of the complex was examined, with and without silenced LITAF, on TNF-α promoter activity. U2OS cells containing the TNF-promoter linked to luciferase were transiently transfected with LITAF alone, STAT6(B) alone, or both DNAs as described. TNF-α promoter activity was analyzed via luciferase activity. […] The TNF-α concentrations in the supernatants of these transfected THP-1 cells was also measured. […] They further indicate that LITAF might play a leading role in cytokine regulation after the LITAF-STAT6(B) complex translocates to the nucleus in the cells.

[3] = test system: Porcine aortic endothelial (PAE) cells expressing VEGFR-2 spheroids; assay: In vitro angiogenesis/tubulogenesis assay with supernatants of transfected THP-1 cells; assay type: cell-based; conditions: supernatant from transfected THP-1 cells, 2 days
Procedure: In Vitro Angiogenesis/Tubulogenesis assay of VEGF. To expand the observations that STAT6(B) is a potent stimulator of VEGF, and that the LITAF-STAT6(B) complex is inhibitory, culture supernatant fluids of LITAF-, STAT6(B)- or LITAF-STAT6(B)-transfected THP1 cells were tested in an in vitro angiogenesis/tubulogenesis assay. The assay was preformed as follows. Porcine aortic endothelial (PAE) cells expressing VEGFR-2 spheroids were generated as described in the art (Mayer and Rahimi, Ann. NY Acad. Sci, 995:200-207, 2003). A defined number of cells were suspended in DMEM containing 1% fetal bovine serum and 0-0.24% (w/v) carboxymethylcellulose (4000 centipoise) in non-adherent round-bottom 96-well plates under standard cell culture conditions. After 24 hours all cells formed one single spheroid per well (about 750 cells/spheroid). Spheroids were cultured for 2 days before using them in the in vitro angiogenesis assay in the following manner Spheroids containing about 750 cells were embedded in collagen gels. Eight volumes of collagen were mixed with 1 volume of 10×HEPES-buffered saline solution containing 10% 10×DMEM with phenol red. […]
It was determined whether VEGF, induced by STAT6(B), was active and capable of inducing angiogenesis and that the LITAF-STAT6(B) complex effect would inhibit this activity. […]

Molecule | protein levels of IL-1α, IL-10, MCP-2 and RANTES by Western blot (THP-1 cells [1]) | VEGF gene expression / transcription (VEGF promoter) | effect on IL-1α (cytokine array) (THP-1 cells [2]) | effect on TNF-α (cytokine array) (THP-1 cells [2]) | MCP-1 promoter activity / MCP-1 expression (MCP-1 promoter) | TNF-α promoter luciferase activity (TNF-α promoter) | effect on GRO (cytokine array) (THP-1 cells [2]) | effect on IL-10 (cytokine array) (THP-1 cells [2]) | effect on RANTES (cytokine array) (THP-1 cells [2]) | in vitro angiogenesis/tubulogenesis [3]
B1 | not altered | – | – | – | – | – | – | – | – | –
B2 | not altered | did not have any effect | modestly up-regulated | modestly up-regulated | significantly up-regulated | – | – | – | – | –
B3 | modest induction of all except MCP-2 | significantly upregulated | up-regulated | – | significantly up-regulated | did not substantially change | up-regulated | up-regulated | up-regulated | stimulated
